Eleven molecules from patent US20230357429A1 (JANUX THERAPEUTICS, published 2023) can be followed below.

Assay [1] deals with T1, Human TROP2 Full length (human, UniProt P09758 31-323).
T1 sequence: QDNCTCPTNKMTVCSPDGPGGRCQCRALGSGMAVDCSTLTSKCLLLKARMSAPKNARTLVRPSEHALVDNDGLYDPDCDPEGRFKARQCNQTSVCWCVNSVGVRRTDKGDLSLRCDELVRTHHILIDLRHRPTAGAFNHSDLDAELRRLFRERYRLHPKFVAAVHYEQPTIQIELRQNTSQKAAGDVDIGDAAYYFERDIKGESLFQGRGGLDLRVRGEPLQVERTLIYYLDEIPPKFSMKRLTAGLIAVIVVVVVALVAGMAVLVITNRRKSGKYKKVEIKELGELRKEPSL
Kind of assay: cell-based or functional assay.

Assay [2] has as its target T2, Human TROP2 ECD (31-274 AA), biotinylated (human, UniProt P09758 31-274, biotinylated (site not stated)).
T2 construct: also called tumor-associated calcium signal transducer 2; Human TROP2-biotin
T2 sequence: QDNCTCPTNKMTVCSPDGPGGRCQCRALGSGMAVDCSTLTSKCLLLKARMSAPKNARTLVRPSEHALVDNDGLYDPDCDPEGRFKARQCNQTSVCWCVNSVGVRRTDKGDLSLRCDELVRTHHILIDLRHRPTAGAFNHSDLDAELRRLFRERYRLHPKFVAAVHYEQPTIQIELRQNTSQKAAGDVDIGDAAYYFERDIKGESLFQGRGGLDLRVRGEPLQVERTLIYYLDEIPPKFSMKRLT
In words: ELISA on immobilized TROP2.

In assay [3] the target is T3, TCE-11 (anti-CD3 scFv H101A; anti-TROP2 wt).
T3 construct: scFv on the Fab heavy chain; also called TCE-11 (H101A)
In words: competition ELISA, TCE on captured CD3. In general terms: In an ELISA, binding on a coated surface is turned into a signal by an enzyme label.

Assay [4] has as its target T4, TCE-14 (anti-CD3 scFv F104A; anti-TROP2 wt).
T4 construct: scFv on the Fab heavy chain; also called TCE-14 (F104A)
Kind of assay: competition ELISA, TCE on captured CD3.

For assay [5], the target named is T5, TCE-20 (anti-CD3 scFv S110A; anti-TROP2 wt).
T5 construct: scFv on the Fab heavy chain; also called TCE-20 (S110A)
Kind of assay: competition ELISA, TCE on captured CD3.

Assay [6] addresses T6, TCE-10 (anti-CD3 scFv R100A; anti-TROP2 wt).
T6 construct: scFv on the Fab heavy chain; also called TCE-10 (R100A)
In words: competition ELISA, TCE on captured CD3.

The target in assay [7] is T7, TCE-13 (anti-CD3 scFv N103A; anti-TROP2 wt).
T7 construct: scFv on the Fab heavy chain; also called TCE-13 (N103A)
Kind of assay: competition ELISA, TCE on captured CD3.

Assay [8] concerns the target T8, TCE-1 (anti-CD3 scFv wt; anti-TROP2 Fab wt).
T8 construct: anti-CD3 scFv fused to the N-terminus of the anti-TROP2 Fab heavy chain; also called TCE-1 (wt)
In words: competition ELISA: peptide titrated and pre-incubated with a constant concentration of TCE-1, binding of TCE-1 to plate-bound biotinylated CD3 detected.

Assay [9] has as its target T9, TCE-31 (anti-CD3 scFv W238A; anti-TROP2 wt).
T9 construct: scFv on the Fab heavy chain; also called TCE-31 (W238A)
In words: competition ELISA, TCE on captured CD3.

For assay [10], the target named is T10, TCE-22 (anti-CD3 scFv W112A; anti-TROP2 wt).
T10 construct: scFv on the Fab heavy chain; also called TCE-22 (W112A)
Kind of assay: competition ELISA, TCE on captured CD3.

In assay [11] the target is T11, TCE-33 (anti-CD3 scFv F240A; anti-TROP2 wt).
T11 construct: scFv on the Fab heavy chain; also called TCE-33 (F240A)
In words: competition ELISA, TCE on captured CD3.

Assay [12] addresses T2, Human TROP2 ECD (31-274 AA), …. Kind of assay: ELISA on immobilized TROP2. This is another data set of the same source.
Assay [13] shares this target. Kind of assay: ELISA, ratio of EC50 to that of TBD-1 wt.
For assay [14] the target is unchanged. Kind of assay: ELISA, biotinylated TROP2 ECD on neutravidin plate, Fab titrated.
Assay [15] has the same target. In words: ELISA: biotinylated TROP2 captured on neutravidin plate, Fab titrated, HRP secondary antibody.
Assay [16] has the same target. In words: ELISA on immobilized TROP2. The source holds these as a separate data set.

Where no end group is shown, it is not given here.

By EC50 is commonly meant the concentration needed to bring the measured effect to its halfway point. High values mean a need for much substance, low ones an effect from little substance. As usually defined, the IC50 is the concentration needed to halve the response being measured. Low values mean greater potency, high ones weaker potency.

B1: TCE-39 (bispecific antibody)
light: DIQLTQSPSSLSASVGDRVSITCKASQDVSIAVAWYQQKPGKAPKLLIYSASYRYTGVPDRFSGSGSGTDFTLTISSLQPEDFAVYYCQQHYITPLTFGAGTKVEIKRTVAAPSVFIFPPSDEQLKSGTASVVCLLNNFYPREAKVQWKVDNALQSGNSQESVTEQDSKDSTYSLSSTLTLSKADYEKHKVYACEVTHQGLSSPVTKSFNRGEC
heavy: EVQLVESGGGLVQPGGSLKLSCAASGFTFNKYAMNWVRQASGKGLEWVGRIRSKYNNYATYYADSVKDRFTISRDDSKNTAYLQMNSLKTEDTAVYYCVRHGNFGNSYISYWAYWGQGTLVTVSSGGGGSGGGGSGGGGSQTVVTQEPSFSVSPGGTVTLTCRSSTGAVTSGNYANWVQQTPGQAPRGLIGGTKFLAPGVPDRFSGSILGNKAALTITGAQADDESDYYCVLWYSNRWVFGGGTKLTVLGGGGSQVQLQQSGSELKKPGASVKVSCKASGYTFTNYGMNWVKQAPGQGLKWMGWINTYTGEPTYTDDFKGRFAFSLDTSVSTAYLQISSLKADDTAVYFCARGGFGSSYWYADVWGQGSLVTVSSASTKGPSVFPLAPSSKSTSGGTAALGCLVKDYFPEPVTVSWNSGALTSGVHTFPAVLQSSGLYSLSSVVTVPSSSLGTQTYICNVNHKPSNTKVDKKVEPKSC
B1: the “HCT116 Cytotoxicity EC50 (pM)” value in assay [1] was determined as 73.2 pM.

B2: TCE-49 (bispecific antibody)
light: DIQLTQSPSSLSASVGDRVSITCKASQDVSIAVAWYQQKPGKAPKLLIYSASYRYTGVPDRFSGSGSGTDFTLTISSLQPEDFAVYYCQQHYITPLTFGAGTKVEIKRTVAAPSVFIFPPSDEQLKSGTASVVCLLNNFYPREAKVQWKVDNALQSGNSQESVTEQDSKDSTYSLSSTLTLSKADYEKHKVYACEVTHQGLSSPVTKSFNRGEC
heavy: not shown
For the molecule B2, the “H292 Cytotoxicity EC50 (pM)” value in assay [1] turned out to be 3.9 pM.

B3: TCE-2 (bispecific antibody)
light: not shown
heavy: QVQLQQSGSELKKPGASVKVSCKASGYTFTNYGMNWVKQAPGQGLKWMGWINTYTGEPTYTDDFKGRFAFSLDTSVSTAYLQISSLKADDTAVYFCARGGFGSSYWYFDVWGQGSLVTVSSASTKGPSVFPLAPSSKSTSGGTAALGCLVKDYFPEPVTVSWNSGALTSGVHTFPAVLQSSGLYSLSSVVTVPSSSLGTQTYICNVNHKPSNTKVDKKVEPKSC
B3 showed an EC50 in assay [2] of 0.13 nM.
Regarding VYCGPEFDESVGCM (cysteine pairing not given here; also: biotinylated, site not given here, mask peptide for the CD3 scFv) [Peptide-67], the concentration for half-maximal inhibition (IC50) came to 2820 nM in [3]; 240 nM in assay [4]; 1320 nM in assay [5]; 18600 nM in assay [6]; 3360 nM in assay [7]; 21600 nM in assay [9]. For the same molecule, the values for the IC50 in [10] and in assay [11] were 38500 nM and 1250 nM, respectively. Further, the binding result in assay [8] is listed as “binds”.
With AYCGPEFDESVGCM (cysteine pairing not given here; also: biotinylated, site not given here, mask peptide for the CD3 scFv) [Peptide-72], the IC50 in assay [3] stood at 790 nM; in assay [4], 320 nM; in assay [5], 3650 nM; in assay [6] it was 45600 nM; in assay [7] it was 3960 nM; in assay [9] it was 29900 nM. In addition, the IC50 stood at 40200 nM in assay [10] and 2700 nM in assay [11]. Further, the “IC50 (read off the curve)” value in assay [8] is roughly 300 nM.

B4: PC-29 (bispecific antibody)
light: GGVDFCGLYHWPICYQGGGGSGGLSGRSDAGSPLGLAGSGGSDIQLTQSPSSLSASVGDRVSITCKASQDVSIAVAWYQQKPGKAPKLLIYSASYRYTGVPDRFSGSGSGTDFTLTISSLQPEDFAVYYCQQHYITPLTFGAGTKVEIKRTVAAPSVFIFPPSDEQLKSGTASVVCLLNNFYPREAKVQWKVDNALQSGNSQESVTEQDSKDSTYSLSSTLTLSKADYEKHKVYACEVTHQGLSSPVTKSFNRGEC
heavy: not shown
notes: anti-TROP2 wt
Molecule B4 gave an EC50 in assay [12] of 16.3 nM.

B5: PC-28 (bispecific antibody)
light: GGIDFCMLYNWPICAGGGGGSGGLSGRSDAGSPLGLAGSGGSDIQLTQSPSSLSASVGDRVSITCKASQDVSIAVAWYQQKPGKAPKLLIYSASYRYTGVPDRFSGSGSGTDFTLTISSLQPEDFAVYYCQQHYITPLTFGAGTKVEIKRTVAAPSVFIFPPSDEQLKSGTASVVCLLNNFYPREAKVQWKVDNALQSGNSQESVTEQDSKDSTYSLSSTLTLSKADYEKHKVYACEVTHQGLSSPVTKSFNRGEC
heavy: not shown
notes: anti-TROP2 wt
Consider B5, for which the EC50 in assay [12] is 25 nM. This EC50 lies about 1.5-fold higher than the previous one.

B6: TBD-18 (anti-TROP2 Fab, HC Y105A) (Fab, V domains shown)
VH: QVQLQQSGSELKKPGASVKVSCKASGYTFTNYGMNWVKQAPGQGLKWMGWINTYTGEPTYTDDFKGRFAFSLDTSVSTAYLQISSLKADDTAVYFCARGGFGSSAWYFDVWGQGSLVTVSS
VL: DIQLTQSPSSLSASVGDRVSITCKASQDVSIAVAWYQQKPGKAPKLLIYSASYRYTGVPDRFSGSGSGTDFTLTISSLQPEDFAVYYCQQHYITPLTFGAGTKVEIKR
As for B6, the “Fold shift in EC50 relative to wt” value in assay [13] came to 4000 fold. The half-maximal effective concentration (EC50) in assay [14] and in assay [15] was 801 nM each time.

B7: PC-11 (bispecific antibody)
light: not shown
heavy: GGVDFCGLYHWPICYQGGGGSSGGSAAGLLAPPGGLSGRSDAGGGGSQVQLQQSGSELKKPGASVKVSCKASGYTFTNYGMNWVKQAPGQGLKWMGWINTYTGEPTYTDDFKGRFAFSLDTSVSTAYLQISSLKADDTAVYFCARGGFGSSYWYFAVWGQGSLVTVSSASTKGPSVFPLAPSSKSTSGGTAALGCLVKDYFPEPVTVSWNSGALTSGVHTFPAVLQSSGLYSLSSVVTVPSSSLGTQTYICNVNHKPSNTKVDKKVEPKSC
notes: anti-TROP2 D109A
B7 yielded a half-maximal effective concentration (EC50) in assay [16] of 379 nM.
For the molecule ASQCLGPEWEVCPY (cysteine pairing not given here; also: biotinylated, site not given here, mask peptide for the CD3 scFv) [Peptide-74], the IC50 in assay [3] stood at 1110 nM; in assay [4], 2470 nM; in assay [5] it was 86600 nM; in assay [6] it was 16100 nM; in [7] it was 10600 nM; in [9], 33800 nM. For the same molecule, the IC50 in assay [10] stood at 75400 nM; in assay [11] it was 3080 nM. Also, the binding result in assay [8] is “binds”.

B8: PC-7 (bispecific antibody)
light: not shown
heavy: GGVDFCGLYHWPICYQGGGGSGGLSGRSDAGSPLGLAGSGGSQVQLQQSGSELKKPGASVKVSCKASGYTFTNYGMNWVKQAPGQGLKWMGWINTYTGEPTYTDDFKGRFAFSLDTSVSTAYLQISSLKADDTAVYFCARGGFGSSYWYFDVWGQGSLVTVSSASTKGPSVFPLAPSSKSTSGGTAALGCLVKDYFPEPVTVSWNSGALTSGVHTFPAVLQSSGLYSLSSVVTVPSSSLGTQTYICNVNHKPSNTKVDKKVEPKSC
notes: anti-TROP2 wt
As to B8, the 50% effective concentration (EC50) in [2] amounted to 24.6 nM.
